Consider two molecules from paper PMC6393702.

Residue numbers refer to the chain shown, from its start.

This data set has as its target T1, His-Vfr (UniProt P55222 1-214).
T1 sequence: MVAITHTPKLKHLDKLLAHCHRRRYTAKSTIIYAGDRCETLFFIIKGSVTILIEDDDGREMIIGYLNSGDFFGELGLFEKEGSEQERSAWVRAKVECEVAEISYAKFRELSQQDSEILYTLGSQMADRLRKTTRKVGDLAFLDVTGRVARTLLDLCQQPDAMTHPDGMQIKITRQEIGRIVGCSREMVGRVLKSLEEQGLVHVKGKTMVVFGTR
Briefly: EMSA. In general terms: Mobility shift assays separate free from complexed probe on a gel.

B1: Vfr CRE probe (dsDNA)
DNA 1: TCCACGACAATGTGCCTCGCTTGGAAGCTCACGCTCCTCACACAGACGAAAAC
DNA 2: GTTTTCGTCTGTGTGAGGAGCGTGAGCTTCCAAGCGAGGCACATTGTCGTGGA
On to B1, for which the binding result was “binds”.

B2: Vfr CRE-Δ probe (dsDNA)
DNA 1: B1 DNA 1 with T11C, G12C, T13C, G14A
DNA 2: B1 DNA 2 with C40T, A41G, C42G, A43G
Consider B2, for which the binding result is “no binding”.
